Measured values from publication PMC11044105, “Overcoming Lot-to-Lot Variability in Protein Activity Using Epitope-Specific Calibration-Free Concentration Analysis” (Analytical Chemistry, 2024).

Target: T1, ProteinA (UniProt P38507)
T1 construct: the form on the sensor is not described; Sensor-chip Protein A is probably a recombinant form; also called ProteinA sensor chip; ProteinA-CM5; source: on SPR sensor chips (ProteinA chip or ProteinA-conjugated CM5 chip)
Assay: SPR; calibration-free concentration analysis (CFCA) on Biacore T200, 1x PBST; NISTmAb 8671 as analyte over ProteinA/ProteinG sensors to assign form factors
Conditions: both partners purified

B1: NISTmAb 8671 (antibody, V domains shown)
VH: QVTLRESGPALVKPTQTLTLTCTFSGFSLSTAGMSVGWIRQPPGKALEWLADIWWDDKKHYNPSLKDRLTISKDTSKNQVVLKVTNMDPADTATYYCARDMIFNFYFDVWGQGTTVTVSS
VL: DIQMTQSPSTLSASVGDRVTITCSASSRVGYMHWYQQKPGKAPKLLIYDTSKLASGVPSRFSGSGSGTEFTLTISSLQPDDFATYYCFQGSGYPFTFGGGTKVEIK
B1: binds.
